# T1: AP2-G D1 (Plasmodium falciparum, UniProt Q8I5I9 2123-2245)
# T1 sequence: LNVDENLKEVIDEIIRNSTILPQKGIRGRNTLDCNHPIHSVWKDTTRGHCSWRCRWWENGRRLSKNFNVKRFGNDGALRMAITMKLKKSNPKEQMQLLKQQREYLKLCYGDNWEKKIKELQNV
# B1: XGTACX_site3357 (dsDNA)
# DNA 1: AATATCCACATTAGGAGTACACAGCTAACTGTTTGA
# DNA 2: TCAAACAGTTAGCTGTGTACTCCTAATGTGGATATT
# B2: XGTACX_site3752 (dsDNA)
# DNA 1: TAAAAAAAAAAAAAAAGTACACACATACATATAAAT
# DNA 2: ATTTATATGTATGTGTGTACTTTTTTTTTTTTTTTA
# B3: XGTACX_site4899 (dsDNA)
# DNA 1: TATTCGTGCAATAGTAGTACACTTATAAATTATTCT
# DNA 2: AGAATAATTTATAAGTGTACTACTATTGCACGAATA
# B4: XGTACX_site3444 (dsDNA)
# DNA 1: TATATTATATATTTATGTACGTATTTGTAAAAAGAT
# DNA 2: ATCTTTTTACAAATACGTACATAAATATATAATATA
# B5: XGTACX_site3596 (dsDNA)
# DNA 1: AAGGAAAATTTTTGGTGTACACAAAAAAATCCAAAA
# DNA 2: TTTTGGATTTTTTTGTGTACACCAAAAATTTTCCTT
# B6: XGTACX_site6504 (dsDNA)
# DNA 1: TGAAAAGATAAAAAAAGTACACACACACATATATAT
# DNA 2: ATATATATGTGTGTGTGTACTTTTTTTATCTTTTCA
# B7: XGTACX_site6064 (dsDNA)
# DNA 1: TAAAACATATAAAGGTGTACGCCTTTTTGTATCAAT
# DNA 2: ATTGATACAAAAAGGCGTACACCTTTATATGTTTTA
# B8: XGTACX_site7727 (dsDNA)
# DNA 1: GGTGTATGTTAAAGGAGTACATATATATATATATAT
# DNA 2: ATATATATATATATATGTACTCCTTTAACATACACC
# B9: XGTACX_site6063 (dsDNA)
# DNA 1: ATGCATATATTTATGTGTACATATATTTGTAGGGGG
# DNA 2: CCCCCTACAAATATATGTACACATAAATATATGCAT
# B10: XGTACX_site6072 (dsDNA)
# DNA 1: CGTTTATATTTTAACTGTACTCAAAAAGTGCATTGT
# DNA 2: ACAATGCACTTTTTGAGTACAGTTAAAATATAAACG
# B11: XGTACX_site4340 (dsDNA)
# DNA 1: TGATACTTTTTTTGTAGTACTCCTAAAATTATAAAA
# DNA 2: TTTTATAATTTTAGGAGTACTACAAAAAAAGTATCA
# B12: XGTACX_site8267 (dsDNA)
# DNA 1: AGATAAATATATTGTAGTACAGGAGCATAAATATAT
# DNA 2: ATATATTTATGCTCCTGTACTACAATATATTTATCT
# B13: XGTACX_site8307 (dsDNA)
# DNA 1: AAATTATAAAAATGTAGTACAGACAATATATTCGTA
# DNA 2: TACGAATATATTGTCTGTACTACATTTTTATAATTT
# B14: XGTACX_site4322 (dsDNA)
# DNA 1: TTACGATACTTTAGGTGTACACAAATATACATGAAT
# DNA 2: ATTCATGTATATTTGTGTACACCTAAAGTATCGTAA
# B15: XGTACX_site2257 (dsDNA)
# DNA 1: CAAAATATACACACGTGTACACAAATATTTACAAAA
# DNA 2: TTTTGTAAATATTTGTGTACACGTGTGTATATTTTG
# B16: XGTACX_site6448 (dsDNA)
# DNA 1: AATTTATATGTTTTGTGTACACAATTTATTAAATTA
# DNA 2: TAATTTAATAAATTGTGTACACAAAACATATAAATT
# B17: XGTACX_site146 (dsDNA)
# DNA 1: GGACGTATTAAAAGGCGTACACTAAATATTTTATGT
# DNA 2: ACATAAAATATTTAGTGTACGCCTTTTAATACGTCC
# B18: XGTACX_site8253 (dsDNA)
# DNA 1: TTTTATGAAAAGATGAGTACACAATACTTTTTAATT
# DNA 2: AATTAAAAAGTATTGTGTACTCATCTTTTCATAAAA
# B19: XGTACX_site5245 (dsDNA)
# DNA 1: AAAAACAAAATTTGGAGTACAGTTATAATATTATTA
# DNA 2: TAATAATATTATAACTGTACTCCAAATTTTGTTTTT
# B20: XGTACX_site5457 (dsDNA)
# DNA 1: ATGGATAACAATATGTGTACACATTTATATCTCCAC
# DNA 2: GTGGAGATATAAATGTGTACACATATTGTTATCCAT
# B21: XGTACX_site7025 (dsDNA)
# DNA 1: TTTTTCTTTTTTTGGGGTACAGGGAAATCTATATTT
# DNA 2: AAATATAGATTTCCCTGTACCCCAAAAAAAGAAAAA
# B22: XGTACX_site2176 (dsDNA)
# DNA 1: CTTCTTATTTTCTAATGTACGTACAAATCATTTATA
# DNA 2: TATAAATGATTTGTACGTACATTAGAAAATAAGAAG
# B23: XGTACX_site206 (dsDNA)
# DNA 1: TGTTTATACATCAGGTGTACGCAAAATAATTGTATG
# DNA 2: CATACAATTATTTTGCGTACACCTGATGTATAAACA
# B24: XGTACX_site930 (dsDNA)
# DNA 1: ATACATATTAATATGTGTACACATTTTTATTTTTTT
# DNA 2: AAAAAAATAAAAATGTGTACACATATTAATATGTAT
# B25: XGTACX_site2251 (dsDNA)
# DNA 1: GTGTAAAAATTAAAGTGTACACATATATATATATAT
# DNA 2: ATATATATATATATGTGTACACTTTAATTTTTACAC
# B26: XGTACX_site3178 (dsDNA)
# DNA 1: CTTGAAAGATTTTATTGTACTCATAAGATACATTTC
# DNA 2: GAAATGTATCTTATGAGTACAATAAAATCTTTCAAG
# B27: XGTACX_site5031 (dsDNA)
# DNA 1: ACATTATATAAAATATGTACACATAAATAAATAAAT
# DNA 2: ATTTATTTATTTATGTGTACATATTTTATATAATGT
# B28: XGTACX_site622 (dsDNA)
# DNA 1: CTTTGTGTTAAAAGTAGTACACCAAAAATATGACTT
# DNA 2: AAGTCATATTTTTGGTGTACTACTTTTAACACAAAG
# B29: XGTACX_site7170 (dsDNA)
# DNA 1: GTTTAGATAAAAGGGCGTACATCTATTTTTGACTAA
# DNA 2: TTAGTCAAAAATAGATGTACGCCCTTTTATCTAAAC
# B30: XGTACX_site8426 (dsDNA)
# DNA 1: TAATATTTATAATAGTGTACACAATTATAAACTGAA
# DNA 2: TTCAGTTTATAATTGTGTACACTATTATAAATATTA
# B31: XGTACX_site4360 (dsDNA)
# DNA 1: GATTAAAATCAAAGGTGTACGCACAAATAAGTCCCA
# DNA 2: TGGGACTTATTTGTGCGTACACCTTTGATTTTAATC
# B32: XGTACX_site6582 (dsDNA)
# DNA 1: TTTCATTTTTTTACATGTACGCAAAAGTGTGTAGTT
# DNA 2: AACTACACACTTTTGCGTACATGTAAAAAAATGAAA
# B33: XGTACX_site6677 (dsDNA)
# DNA 1: TTGTATTTCCTTAGGAGTACACATAAATAAGTAAAT
# DNA 2: ATTTACTTATTTATGTGTACTCCTAAGGAAATACAA
# B34: XGTACX_site1983 (dsDNA)
# DNA 1: GTTTGGTGGTGTTTTGGTACGTACGGGGGGGTATGT
# DNA 2: ACATACCCCCCCGTACGTACCAAAACACCACCAAAC
# B35: XGTACX_site2541 (dsDNA)
# DNA 1: ACAGCTACCAGATACTGTACTTTTCTCCAGACTGCA
# DNA 2: TGCAGTCTGGAGAAAAGTACAGTATCTGGTAGCTGT
# B36: XGTACX_site2346 (dsDNA)
# DNA 1: TTAATAATAAAAAGGAGTACACTAATATACTATAAA
# DNA 2: TTTATAGTATATTAGTGTACTCCTTTTTATTATTAA
# B37: XGTACX_site1238 (dsDNA)
# DNA 1: ATGTGCACATATAAAAGTACACGCACATATATATAT
# DNA 2: ATATATATATGTGCGTGTACTTTTATATGTGCACAT
# B38: XGTACX_site8843 (dsDNA)
# DNA 1: ATAATTATTTTCCCGTGTACTTATTTTTTTCAAGTA
# DNA 2: TACTTGAAAAAAATAAGTACACGGGAAAATAATTAT
# B39: XGTACX_site882 (dsDNA)
# DNA 1: TTTTCTTTTTTGAACTGTACGCGTAAATTTAAAAAG
# DNA 2: CTTTTTAAATTTACGCGTACAGTTCAAAAAAGAAAA
# B40: XGTACX_site8781 (dsDNA)
# DNA 1: TAAATAAATTTGCACTGTACGCAAAAAAAAAAAAGA
# DNA 2: TCTTTTTTTTTTTTGCGTACAGTGCAAATTTATTTA
# B41: XGTACX_site3050 (dsDNA)
# DNA 1: ATATAATTTTTCAAGTGTACTTTTTTTTTTTAACAT
# DNA 2: ATGTTAAAAAAAAAAAGTACACTTGAAAAATTATAT
# B42: XGTACX_site5339 (dsDNA)
# DNA 1: TATTTTTTACATTCGTGTACGCATTTTTGTGAATTT
# DNA 2: AAATTCACAAAAATGCGTACACGAATGTAAAAAATA
# B43: XGTACX_site5662 (dsDNA)
# DNA 1: TTATTCTAAAAAGGGTGTACACAAACGAATGGAAAA
# DNA 2: TTTTCCATTCGTTTGTGTACACCCTTTTTAGAATAA
# Target: T1, AP2-G D1
# Test: gcPBM; about 25 ug protein; PBS, 1% milk, 0.2 mg/ml BSA, salmon testes DNA, 0.03% Triton X-100
# Conditions: tags: N-terminal GST (pGEX-4T-1), kept; label: surface-attached array probe
row,Binder,binding signal
1,B1,"12.6 ln median PBM intensity, better of two orientations"
2,B2,"12.7 ln median PBM intensity, better of two orientations"
3,B3,"12.7 ln median PBM intensity, better of two orientations"
4,B4,"12.8 ln median PBM intensity, better of two orientations"
5,B5,"12.8 ln median PBM intensity, better of two orientations"
6,B6,"12.7 ln median PBM intensity, better of two orientations"
7,B7,"12.6 ln median PBM intensity, better of two orientations"
8,B8,"12.7 ln median PBM intensity, better of two orientations"
9,B9,"12.6 ln median PBM intensity, better of two orientations"
10,B10,"12.7 ln median PBM intensity, better of two orientations"
11,B11,"12.8 ln median PBM intensity, better of two orientations"
12,B12,"12.8 ln median PBM intensity, better of two orientations"
13,B13,"12.7 ln median PBM intensity, better of two orientations"
14,B14,"12.6 ln median PBM intensity, better of two orientations"
15,B15,"12.6 ln median PBM intensity, better of two orientations"
16,B16,"12.6 ln median PBM intensity, better of two orientations"
17,B17,"12.8 ln median PBM intensity, better of two orientations"
18,B18,"12.7 ln median PBM intensity, better of two orientations"
19,B19,"12.7 ln median PBM intensity, better of two orientations"
20,B20,"12.8 ln median PBM intensity, better of two orientations"
21,B21,"12.7 ln median PBM intensity, better of two orientations"
22,B22,"12.6 ln median PBM intensity, better of two orientations"

row,Binder,binding signal
1,B23,"12.7 ln median PBM intensity, better of two orientations"
2,B24,"12.6 ln median PBM intensity, better of two orientations"
3,B25,"12.8 ln median PBM intensity, better of two orientations"
4,B26,"12.7 ln median PBM intensity, better of two orientations"
5,B27,"12.7 ln median PBM intensity, better of two orientations"
6,B28,"12.7 ln median PBM intensity, better of two orientations"
7,B29,"12.7 ln median PBM intensity, better of two orientations"
8,B30,"12.7 ln median PBM intensity, better of two orientations"
9,B31,"12.7 ln median PBM intensity, better of two orientations"
10,B32,"12.6 ln median PBM intensity, better of two orientations"
11,B33,"12.7 ln median PBM intensity, better of two orientations"
12,B34,"12.7 ln median PBM intensity, better of two orientations"
13,B35,"12.6 ln median PBM intensity, better of two orientations"
14,B36,"12.7 ln median PBM intensity, better of two orientations"
15,B37,"12.6 ln median PBM intensity, better of two orientations"
16,B38,"12.6 ln median PBM intensity, better of two orientations"
17,B39,"12.7 ln median PBM intensity, better of two orientations"
18,B40,"12.6 ln median PBM intensity, better of two orientations"
19,B41,"12.7 ln median PBM intensity, better of two orientations"
20,B42,"12.7 ln median PBM intensity, better of two orientations"
21,B43,"12.6 ln median PBM intensity, better of two orientations"

# — PMC11417369, “DNA sequence and chromatin differentiate sequence-specific transcription factor binding in the human malaria parasite Plasmodium falciparum”
